Reference: paper PMC12803513

Biological target: microtubules (polymers of alpha- and beta-tubulin) of Drosophila head lysate (D. melanogaster (endogenous in adult fly heads)) (UniProt P06603)
Assay: co-sedimentation; in vivo microtubule-binding assay: 50 wild-type fly heads homogenised in Buffer-C+ (50 mM HEPES pH 7.1, 1.0 mM MgCl2, 1.0 mM EGTA, protease and phosphatase inhibitors) with 20 uM Taxol; 100,000 x g for 30 min through a 50% sucrose cushion; pellet blotted with anti-Pfdn5 and anti-ace-tubulin

UniProt P06603, sequence (P06603 whole entry, chain 1 of 2): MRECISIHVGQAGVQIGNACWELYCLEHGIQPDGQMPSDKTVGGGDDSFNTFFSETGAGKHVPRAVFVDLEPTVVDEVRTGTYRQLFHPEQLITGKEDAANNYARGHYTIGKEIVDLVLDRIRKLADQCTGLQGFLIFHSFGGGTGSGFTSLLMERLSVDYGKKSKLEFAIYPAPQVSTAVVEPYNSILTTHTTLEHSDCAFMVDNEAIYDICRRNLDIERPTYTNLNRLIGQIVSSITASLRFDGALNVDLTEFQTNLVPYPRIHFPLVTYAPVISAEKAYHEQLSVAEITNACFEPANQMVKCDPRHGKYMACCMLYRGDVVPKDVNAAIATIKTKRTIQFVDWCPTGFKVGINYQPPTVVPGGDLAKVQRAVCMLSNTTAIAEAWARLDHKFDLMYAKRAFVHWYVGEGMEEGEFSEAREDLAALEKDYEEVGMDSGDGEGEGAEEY
UniProt P06603, sequence (Q24560 whole entry, chain 2 of 2, further chain): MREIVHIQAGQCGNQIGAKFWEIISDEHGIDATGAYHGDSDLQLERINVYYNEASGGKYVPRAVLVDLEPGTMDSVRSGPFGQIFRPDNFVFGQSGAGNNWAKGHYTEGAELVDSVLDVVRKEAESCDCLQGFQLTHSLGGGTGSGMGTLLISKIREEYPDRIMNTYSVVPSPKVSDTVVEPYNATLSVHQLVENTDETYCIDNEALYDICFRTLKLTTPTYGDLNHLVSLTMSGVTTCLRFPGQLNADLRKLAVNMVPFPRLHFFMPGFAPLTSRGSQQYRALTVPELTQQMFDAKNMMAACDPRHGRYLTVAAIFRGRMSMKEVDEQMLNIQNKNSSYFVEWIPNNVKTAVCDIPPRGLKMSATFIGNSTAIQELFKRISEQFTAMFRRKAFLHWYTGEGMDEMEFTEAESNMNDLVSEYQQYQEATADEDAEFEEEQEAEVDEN

percentage of Pfdn5 in the pellet fraction: 36.7%
B1: Prefoldin 5 (natural protein)
chain: MAATPSAPAKSEMIDLTKLSPEQLIQIKQEFEQEITNVQDSLSTLHGCQAKYAGSKEALGTFQPNWENRQILVPLTSSMYVPGRVKDLNRFVIDIGTGYYIEKDLEGSKDYFKRRVEYVQEQIEKIEKIHLQKTRFYNSVMSVLEMKQAAAAKLQSQQQSQPAVTQSS
